Assay results taken from article PMC3501490, “An Investigation of Hierachical Protein Recruitment to the Inhibitory Platelet Receptor, G6B-b” (PLoS ONE, 2012).

Tests used:
[1] = target: SHP-2 tandem (N+C) SH2 domains (UniProt Q06124); assay: SPR kinetics, 37°C; conditions: reference: unphosphorylated peptide
[2] = target: SHP-2 tandem (N+C) SH2 domains (UniProt Q06124); assay: direct peptide pull-down, Coomassie gel
[3] = target: G6B-b dual phosphopeptide (biotinylated 60-mer, amino acids 182 to 241, pY211 and pY237) (human) (UniProt O95866); assay: pull-down; direct pull down assay: peptide on Streptactin beads incubated with equimolar purified SH2 domains (100 pM [sic] each for the tandem SH2 domains), 250 µl PBS, 30 minutes, room temperature; bound and unbound fractions on Coomassie-stained gels
[4] = target: G6B-b pY211 phosphopeptide (biotinylated 60-mer, amino acids 182 to 241, ITIM phosphorylated) (human) (UniProt O95866); assay: as above
[5] = target: G6B-b pY237 phosphopeptide (biotinylated 60-mer, amino acids 182 to 241, ITSM phosphorylated) (human) (UniProt O95866); assay: as above
[6] = target: G6B-b dual phosphopeptide (biotinylated 60-mer, amino acids 182 to 241, pY211 and pY237) (human) (UniProt O95866); assay: SPR; purified SH2 domains of Syk, PLCγ2, Src and PI3K p85 over immobilised G6B-b peptides; how the KD was obtained is not told
[7] = target: Syk SH2 domains (UniProt P43405); assay: SPR; conditions: reference: unphosphorylated peptide; sites Y211,Y237
[8] = target: SHP-1 tandem (N+C) SH2 domains (UniProt P29350); assay: SPR, 37°C
[9] = target: SHP-2 C-terminal SH2 domain (UniProt Q06124); assay: SPR, 37°C; conditions: reference: unphosphorylated peptide; sites Y211,Y237
[10] = target: SHP-2 tandem (N+C) SH2 domains (UniProt Q06124); assay: SPR, 37°C
[11] = target: SHP-1 tandem (N+C) SH2 domains (UniProt P29350); assay: SPR kinetics, 37°C; conditions: reference: unphosphorylated peptide; sites Y211,Y237
[12] = target: SHP-1 tandem (N+C) SH2 domains (UniProt P29350); assay: direct peptide pull-down, Coomassie gel
[13] = target: SHP-2 C-terminal SH2 domain (UniProt Q06124); assay: direct peptide pull-down, Coomassie gel; conditions: reference: unphosphorylated peptide; sites Y211,Y237
[14] = target: SHP-2 N-terminal SH2 domain (UniProt Q06124); assay: direct peptide pull-down, Coomassie gel; conditions: reference: unphosphorylated peptide; sites Y211,Y237
[15] = target: Syk tandem (N+C) SH2 domains (UniProt P43405); assay: direct peptide pull-down, Coomassie gel; conditions: reference: unphosphorylated peptide; sites Y211,Y237
[16] = target: SHP-2 (UniProt Q06124); assay: biotin-peptide pull-down from platelet lysate; conditions: reference: unphosphorylated peptide; sites Y211,Y237
[17] = target: Syk (UniProt P43405); assay: biotin-peptide pull-down from platelet lysate; conditions: reference: unphosphorylated peptide; sites Y211,Y237
[18] = target: G6B-b dual phosphopeptide (biotinylated 60-mer, amino acids 182 to 241, pY211 and pY237) (human) (UniProt O95866); assay: SPR; BIAcore 3000, biotinylated peptides (50 RU) on streptavidin-coated CM5 chip, single SH2 domains flowed at 10 µl/min, HBS buffer pH 7.4, 0.15 M NaCl, 37°C; KD from equilibrium binding, single site fitting
[19] = target: G6B-b pY211 phosphopeptide (biotinylated 60-mer, amino acids 182 to 241, ITIM phosphorylated) (human) (UniProt O95866); assay: as above
[20] = target: G6B-b pY237 phosphopeptide (biotinylated 60-mer, amino acids 182 to 241, ITSM phosphorylated) (human) (UniProt O95866); assay: as above
[21] = reference: pY211 peptide, sites Y237
[22] = reference: pY237 peptide, sites Y211
[23] = reference: unphosphorylated peptide, sites Y211,Y237

Substance: G6B-b 182-241 (from UniProt O95866) pY211 peptide
- binding against the reference ([1]; sites Y211): stronger
- other: share of SH2 protein bound ([2]; reference: unphosphorylated peptide, sites Y211): stronger

Substance: G6B-b 182-241 (from UniProt O95866) pY237 peptide
- binding against the reference ([1]; sites Y237): stronger
- other: share of SH2 protein bound ([2]; reference: unphosphorylated peptide, sites Y237): stronger

Substance: SHP-1 (N+C)SH2 domains (maltose binding protein-tag) (domain or fragment)
- percent bound [3]: 30%

Substance: SHP-2 (N+C)SH2 domains (His-tag) (domain or fragment)
- percent bound [3]: 70%
- percent bound [4]: 50%
- percent bound [5]: 25%

Substance: Syk tandem (N+C) SH2 domains (domain or fragment)
- Kd [6]: 25000 nM
- percent bound [3]: 20%

Substance: G6B-b 182-241 (from UniProt O95866) dual pY211/pY237 peptide
- KD [7]: stronger
- binding against the reference [8, 21]: stronger
- binding against the reference [8, 22]: stronger
- binding against the reference [9]: stronger
- binding against the reference [10, 21]: stronger
- binding against the reference [10, 22]: stronger
- KD [11]: 35.3 nM
- KD ([1]; sites Y211,Y237): 0.48 nM
- other: share of SH2 protein bound [12, 21]: gained; reference little or no association
- other: share of SH2 protein bound [12, 22]: gained; reference little or no association
- other: share of SH2 protein bound [12, 23]: stronger
- binding against the reference [13]: stronger
- binding against the reference [14]: stronger
- other: share of SH2 protein bound [2, 21]: stronger; reference ∼50
- other: share of SH2 protein bound [2, 22]: stronger; reference ∼25
- other: share of SH2 protein bound [2, 23]: stronger
- other: share of SH2 protein bound [15]: stronger
- binding against the reference [16]: gained
- binding against the reference [17]: stronger

Substance: SHP-2 (N)SH2 (His-tag) (domain or fragment)
- Kd [18]: 130 nM
- Kd [19]: 110 nM
- Kd [20]: 10000 nM

Substance: PLCγ2 N+C tandem SH2 domains (domain or fragment)
- percent bound [3]: 40%
